Tests used:
[1] = biological target: extracellular domain of CD47 fused to a His(×6)-Avi-tag (human); assay: ELISA; pH 6.8
[2] = biological target: extracellular domain of CD47 fused to a His(×6)-Avi-tag (human); assay: ELISA; pH 7.0
[3] = biological target: extracellular domain of CD47 fused to a His(×6)-Avi-tag (human); assay: ELISA; pH 6.2
[4] = biological target: extracellular domain of CD47 fused to a His(×6)-Avi-tag (human); assay: ELISA; pH 7.6
[5] = biological target: extracellular domain of CD47 fused to a His(×6)-Avi-tag (human); assay: ELISA; pH 6.4
[6] = biological target: extracellular domain of CD47 fused to a His(×6)-Avi-tag (human); assay: ELISA; pH 6.6
[7] = biological target: extracellular domain of CD47 fused to a His(×6)-Avi-tag (human); assay: ELISA; pH 7.4
[8] = biological target: extracellular domain of CD47 fused to a His(×6)-Avi-tag (human); assay: ELISA; pH 7.2

Sequence of extracellular domain of CD47 fused to a His(×6)-Avi-tag (human) (Q08722 19-141): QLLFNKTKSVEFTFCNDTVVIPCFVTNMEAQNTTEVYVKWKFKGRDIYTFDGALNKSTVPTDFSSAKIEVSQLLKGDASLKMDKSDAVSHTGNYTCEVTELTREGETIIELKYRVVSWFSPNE

EC50 [1]: 0.03 nM
EC50 [2]: 0.04 nM
EC50 [3]: 0.04 nM
EC50 [4]: 0.04 nM
EC50 [5]: 0.04 nM
EC50 [6]: 0.04 nM
EC50 [7]: 0.04 nM
EC50 [8]: 0.03 nM
Substance: Hu5F9
